The text below walks through data of patent US20200216495A1 (ADRX, published 2020).

Like-named read-outs stand apart in the source and are kept apart here. Square brackets hold non-standard residues; d marks the D form. Primed or numbered codes have the meaning given here. Ends that are not written are not given here. PEG2′ = not defined here; Tam = not defined here

Assay in all cases: cell-based or functional assay
Test [1] deals with T1, His-Tau40 P301L Tau fibrils (human).
T1 chain: RLRIRW

The next test addresses Tau40 P301L protein (human).
For test [2], the target named is T1, His-Tau40 P301L Tau fibrils.

Take RRRRRRRRRGGSGG[dW][dR][dI][dW][dI][dR][dY][dW] [RRRRRRRRR-GGSGG-wriwiryw]: the “EC50, HEK cell assay (TauRD(P301S) split luciferase, seeded with tau fibrils)” value (from here on “EC50, HEK cell assay”) in test [1] was found to be 0.9 µM.

RRRRRRRRRRGGSGG[dE][dL][dK][dI][dV][dW] [RRRRRRRRRR-GGSGG-elkivw]: the “EC50, HEK cell assay” value in test [1] was found to be 11.7 µM.

Regarding {TAMRA5-PEG2′}-[dW][dR][dA][dK][dA][dR][dA][dW]-OH [TAMRA5-PEG2-wrakaraw-OH], the “IC50, Tau40 assay-Modified peptides (ThT)” value (“IC50 … (ThT)” for short) in the test with Tau40 P301L protein turned out to be 9.17 µM.

In the case of RRRRRRRRRRGGSGG[dW][dK][dV][dQ][dV][dR][dL][dW] [RRRRRRRRRR-GGSGG-wkvqvrlw], the “EC50, HEK cell assay” value in test [1] turned out to be 2.1 µM.

As to RRRRRRRRRRGGSGG[dT][dL][dK][dI][dV][dW] [RRRRRRRRRR-GGSGG-tlkivw], in test [1], the “EC50, HEK cell assay” value was 2.9 µM.

As to Tam-RRRRRRRRRRGGSGG[dW][dK][dV][dQ][dV][dR][dL][dW] (reading uncertain; also: printed as Tam-RRRRRRRRRR-GGSGG-wkvqvrlw) [Tam-RRRRRRRRRR-GGSGG-wkvqvrlw], the “IC50 … (ThT)” value in the test with Tau40 P301L protein is 5.53 µM. For the same molecule, the “EC50, HEK cell assay” value in test [2] was determined as 1.5 µM.

As for Tam-RRRRRRRRRRGGSGG[dL][dE][dL][dK][dI][dK][dF][dW] (reading uncertain; also: printed as Tam-RRRRRRRRRR-GGSGG-lelkikfw) [Tam-RRRRRRRRRR-GGSGG-lelkikfw], in the test with Tau40 P301L protein, the “IC50 … (ThT)” value is 8.71 µM. Moreover, the “EC50, HEK cell assay” value in test [2] turned out to be 12.1 µM.

On to Tam-RRRRRRRRRRGGSGG[dT][dL][dK][dI][dV][dW] (reading uncertain; also: printed as Tam-RRRRRRRRRR-GGSGG-tlkivw) [Tam-RRRRRRRRRR-GGSGG-tlkivw], for which the “IC50 … (ThT)” value in the test with Tau40 P301L protein worked out at 4.92 µM. In addition, in test [2], the “EC50, HEK cell assay” value was found to be 3.6 µM.

Take Tam-RRRRRRRRRRGGSGG[dE][dL][dK][dI][dV][dW] (reading uncertain; also: printed as Tam-RRRRRRRRRR-GGSGG-elkivw) [Tam-RRRRRRRRRR-GGSGG-elkivw]: the “EC50, HEK cell assay” value in test [2] worked out at 5.6 µM.

For RRRRRRRRRRGGSGG[dL][dE][dL][dK][dI][dK][dF][dW] [RRRRRRRRRR-GGSGG-lelkikfw], the “EC50, HEK cell assay” value in test [1] was 16.4 µM.

Turning to RRRRRRRRRRGGSGG[dW][dR][dL][dK][dV][dR][dW][dW] [RRRRRRRRRR-GGSGG-wrlkvrww], the “EC50, HEK cell assay” value amounted to 2.3 µM in test [1] and 1.7 µM in test [2].

In the case of Tam-YGRKKRRQRRRGGSGG[dW][dR][dL][dK][dV][dR][dW][dW] (reading uncertain) [Tam-[…]-GGSGG-wrlkvrww], in the test with Tau40 P301L protein, the “IC50 … (ThT)” value amounted to 6.6 µM. Moreover, the “EC50, HEK cell assay” value in test [2] is 1.8 µM.

Consider Tam-RRRRRRRRRGGSGG[dW][dR][dL][dK][dV][dR][dW][dW] (reading uncertain; also: printed as Tam-RRRRRRRRR-GGSGG-wrlkvrww) [Tam-RRRRRRRRR-GGSGG-wrlkvrww], for which, in the test with Tau40 P301L protein, the “IC50 … (ThT)” value worked out at 20.5 µM. In addition, the “EC50, HEK cell assay” value in test [2] worked out at 1.5 µM.
